The target of this assay is ex vivo seeds extracted from the hearts of eight ATTR patients. The assay is described as follows: cell-based or functional assay.

Where no end group is shown, it is not given here. [ ]: non-standard residue; d: D form. NMeE = CN[C@@H](CCC(=O)O)C(=O)O

For the molecule RRRRHVAHPFV[NMeE]FTE [TabF2], the peptide concentration giving full inhibition of amyloid seeding (tested as the cocktail TabFH2) was 360 µM.

The values above are taken from US20200010507A1.
